# Results from patent US6509165.
# Molecular target: RT1.D (rat MHC class II molecule) (rat)
# Assay: cell-based or functional assay
substance,measurement,value
Ox-17 (anti-RT1.D antibody),inhibition of proliferation of PI-specific T cells to 20 ug/ml PI peptide,22 to 25%
